Here are results for 41 sequences from the nanobody polyreactivity screen of Harvey et al. (2022).

This data set in a line: yeast display, Sf9 membrane polyspecificity reagent, FACS + sequencing; frameworks hold sequencing errors. The gist of the method: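 Genes from sorted yeast were amplified by colony PCR, read by MiSeq 2 × 250 sequencing and filtered on CDR length. These cells carried a synthetic nanobody library in Saccharomyces cerevisiae BJ5465 and were sorted by FACS into low and high (top ~1%) gates on anti-HA and streptavidin fluorescence. Polyreactivity is labelled according to the gate of origin.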
Take “QVQLVESGGGLVQAGGSLRLSCAASGSILGYYAMGWYRQAPGKERELVAAISSGGSTNYADSVKGRFTISRDNAKNTVYLQMNSLKPEDTAVYYCAAGVTWPYRYVWYDYWGQGTQVTVSS”: the “polyreactivity (PSR sort gate)” value is recorded as “low polyreactivity”.

On to “QVQLVESGGGLVQAGGSLRLSCAASGSILGYYVMGWYRQAPGKERELVAAISWSSGSTYYADSVKGRFTISRDNAKNTVYLQLNSLKPEDTAVYYCNASNVYFWFVTLEFDSWGQGTQVTVSS”, for which the “polyreactivity (PSR sort gate)” value is recorded as “low polyreactivity”.

Regarding “QVQLVESGGGLVQAGGSLRLSCAASGSILIWNTMGWDRQAPGKDRELVAAISSGGSTYYADSVKGRFTISRDNAKNTVYLQMNSLKPEDTAVYYCNVDLPRVLTDDSWGQGTHVTVSS”, the “polyreactivity (PSR sort gate)” value is “low polyreactivity”.

Turning to “QVQLVESGGGLVQAGGSLRLSCAASGSILKSYAMGWYRQAPGKERELVAAITYRDGSTYYADSVKGRFTISRDNAKNTVYLQMNSLKPEDTAVYYCAAEPSWWNVFYPGYNYWGQGTQVTVSA”, the “polyreactivity (PSR sort gate)” value is “high polyreactivity”.

“QVQLVESGGGLVQAGGSLRLSCAASGSILKVYAMGWYRQAPGKERELVAGITRSGVRTNYADSVKGRFTISRDNAKNTVYLQMNSLKPEDTAVCYCAAVGYVYRTYWYTRQSTYEYWGQGTQVTVSS”: the “polyreactivity (PSR sort gate)” value is on record as “high polyreactivity”.

As for “QVQLVESGGGLVQAGGSLRLSCAASGSILLYYTMGWYRQAPGKERELVASITSGGRTYYADSVKGRFTISRDNAKNTVYLQMNSLKPEDTAVYYCAADVWKLYDYWGQGTQVTVSS”, the “polyreactivity (PSR sort gate)” value is “low polyreactivity”.

For the sequence “QVQLVESGGGLVQAGGSLRLSCAASGSILNNYAMGWYRQAPGKERELVAAISSSGGTNYADSVKGRFTISRDNAKNTVYLPMNSLKPVDTAVYYCNADVLDGGYDYWGQGTQVTVSS”, the “polyreactivity (PSR sort gate)” value is on record as “low polyreactivity”.

In the case of “QVQLVESGGGLVQAGGSLRLSCAASGSILPRYAMGWYRQAPGKERELVAAITSGGITSYADSVKGRFTISRDNAKNTVYLQMNSLKPEDTAVYYCAADWYVIYDYWGQGTQVTVSS”, the “polyreactivity (PSR sort gate)” value is “low polyreactivity”.

Consider “QVQLVESGGGLVQAGGSLRLSCAASGSILPTNAMGWYRPAPGKERELVASITYNGGRTSYADSVKGRFTISRDNAKNTVYLQMNSLKPEDTAVYYCAARVWYQGYKSMGYWGQGTQVTVSS”, for which the “polyreactivity (PSR sort gate)” value is “high polyreactivity”.

Take “QVQLVESGGGLVQAGGSLRLSCAASGSILPYNAMGWYRQAPGKERELVASISRGGGTNYADSVKGRFTISRDNAKNTVYLQMNSLKPEDTAVYYCAARTLRVDYDSHWYSLVDYWGQGTQVTVSS”: the “polyreactivity (PSR sort gate)” value is reported as “low polyreactivity”.

For “QVQLVESGGGLVQAGGSLRLSCAASGSILPYNAMGWYRQAPGKERELVCSSSRGGGTNYADSVKGRFTISRDNAKNTVYLQMNSLKPEDTAVYYCAARTLRVDYDSHWYSLVDYWGQGTQVTVSS”, the “polyreactivity (PSR sort gate)” value is reported as “low polyreactivity”.

Take “QVQLVESGGGLVQAGGSLRLSCAASGSILPYYAMGWYRQAPGKERELVAAISDSGGSTYYADSVKGRFTISRDNSKNTVYLQMNILKPEDTAVYYCNAVVRSTAHGYWGQGTQVTVSS”: the “polyreactivity (PSR sort gate)” value is recorded as “high polyreactivity”.

With “QVQLVESGGGLVQAGGSLRLSCAASGSILQINPMGWYRPAPAKERDLVAANDWGGGDTYYADSVKGRFTIARDNAKNTVYVQMISLKTEDTAVYYCAAEGVSWYVWDFYDIYGYWGHGTQVTVSS”, the “polyreactivity (PSR sort gate)” value is listed as “high polyreactivity”.

On to “QVQLVESGGGLVQAGGSLRLSCAASGSILQRNAMGWYRHARGTERELVAAISWSGDNTYYADSVKGRFTISRDNAKNTVYLQMISLKPEDTAVYYCATDDDIYFQEYDYWGQGTQVTVSA”, for which the “polyreactivity (PSR sort gate)” value is “low polyreactivity”.

As to “QVQLVESGGGLVQAGGSLRLSCAASGSILRLYVMGWYIQAPGKDRELVADISDRGGSTYYADSVKGRFTISRDNAKNTVYLQMNSLKPEDTAVYYCAAEWGQRGGGGYYYWGQGTQVTVSS”, the “polyreactivity (PSR sort gate)” value was “low polyreactivity”.

Regarding “QVQLVESGGGLVQAGGSLRLSCAASGSILRQYAMGWYRQAPGKERELVATITGDGSTNYADSVKGRFTISRDNAKNTVYLQMNSLKPEDTAVYYCNTALTYPYPNVEDLVYGFKLDYWGQGTQVTVSS”, the “polyreactivity (PSR sort gate)” value is reported as “low polyreactivity”.

Take “QVQLVESGGGLVQAGGSLRLSCAASGSILRQYAMGWYRQAPGKERELVATITGDGSTNYADSVKGRFTISRDNAKNTVYLQMNSLKPEDTAVYYCNTYLTYPYPNVEVLVYGFKLDYWGQGTQVTVSS”: the “polyreactivity (PSR sort gate)” value was “low polyreactivity”.

Consider “QVQLVESGGGLVQAGGSLRLSCAASGSILRSNAMGWYIQAPGKERELVATITNSGGSTYSDSVKGSFTISRDNAKNTVYVQMNSLKPEVTAVYYCAKAGAGESIAKYDYWGQGTQVTVSS”, for which the “polyreactivity (PSR sort gate)” value is reported as “low polyreactivity”.

“QVQLVESGGGLVQAGGSLRLSCAASGSILRYYAMGWFRQAPGKERELVAAISYSGGSTYYADSVKGRFTISRDNAKNTVYLQMNSLKPEDTAVYYCNKLYDRGYDYWGQGTQVTVSS”: the “polyreactivity (PSR sort gate)” value is “high polyreactivity”.

“QVQLVESGGGLVQAGGSLRLSCAASGSILSFNAMGWYRQAPGKERELVAAICRGGSTYYADSVKGRFTISRDNAKNTVYLQMNSLKPEDTAVYYCAVQLRRHVDMDYWGQGTQVTVSS”: the “polyreactivity (PSR sort gate)” value was “high polyreactivity”.

On to “QVQLVESGGGLVQAGGSLRLSCAASGSILSYYAMGWYRQAPGKERELVAAISKSGGRTYYADSVKGRFTISRDNAKNTVYLQMNRLKPEDTAVYYCAAPATYKYDYWGQGTQVTVSS”, for which the “polyreactivity (PSR sort gate)” value is “high polyreactivity”.

“QVQLVESGGGLVQAGGSLRLSCAASGSILTPYAMGWYRQAPGKERELVAAISWGDGSTYYADSVKGRFTISRDNAKNTVYLQMNSLNPEDNAVYYCAAVSYYGVDQYRITVYTYEYWGQGTQVTVSS”: the “polyreactivity (PSR sort gate)” value is given as “low polyreactivity”.

For the sequence “QVQLVESGGGLVQAGGSLRLSCAASGSILVQSAMGWERQAPGKERELVAAISRGGSTNYADSVKGRFTISRDNPKNTVYLQMNSLKPEDTAVYYCAARRPWGEYYWGQGTQVNVSS”, the “polyreactivity (PSR sort gate)” value was “low polyreactivity”.

As for “QVQLVESGGGLVQAGGSLRLSCAASGSILVRYSMGWYRQAPGKERELVAAITSGGSTYADSVKGRFTISRDNAKNTVYLQLNSLNPEDTAVYYCARDYFNREAFDYWGQGTQVTVSS”, the “polyreactivity (PSR sort gate)” value is “low polyreactivity”.

Consider “QVQLVESGGGLVQAGGSLRLSCAASGSILVSYAMGWYRQAPGKERELVAAITRSGVRTYYADSVKGRFTISRDNAKNSVYLQMNSLKPEDTAVYYCAADTYRSSSPYGYWGQGTQVTVSS”, for which the “polyreactivity (PSR sort gate)” value is “high polyreactivity”.

On to “QVQLVESGGGLVQAGGSLRLSCAASGSILWDNAMGWYRQAPGKERELVATISVSGGGTYYADSVKGRFTISLDNAKNTVYLQMNSLKPEDTSVYYCNARYGNESQGWEDYWGQGTQVTVSS”, for which the “polyreactivity (PSR sort gate)” value is “low polyreactivity”.

Turning to “QVQLVESGGGLVQAGGSLRLSCAASGSILYFNAMGWYRQAPGKEREFVATIRRSGGSTNYADSVKGRFTISRDNAKNTVYLQMNSVKREDTAVYYCNARLSSGYTSWRYNYWGQGTQVSVSS”, the “polyreactivity (PSR sort gate)” value is “high polyreactivity”.

Turning to “QVQLVESGGGLVQAGGSLRLSCAASGSILYGYAMGWYRQAPGKERELYASITSDGSSNYADSVKGRFTISRDNAKNTVYFQMNSLKPEDTAVYYCAADVRLIWSASLTTSKYDYWGQGTQVTVSS”, the “polyreactivity (PSR sort gate)” value is “low polyreactivity”.

With “QVQLVESGGGLVQAGGSLRLSCAASGSILYINTMGWYRQAPGKERELVAAITYSGGSTYYADSVKGRLTISRDNAKNTVYLQMNRLKPEDTAVYYCAADGYYGGYNYWGQGTQVTVSS”, the “polyreactivity (PSR sort gate)” value is listed as “low polyreactivity”.

For “QVQLVESGGGLVQAGGSLRLSCAASGSILYPTAMGWYTQAPGKEREFVAGITSSGSTYYADSVKGRFTISRDNAKNTVDDQMNSLKPDDTAVYYCATSVYRTYGNSVHRMNYWGQGTQVTVSS”, the “polyreactivity (PSR sort gate)” value was “high polyreactivity”.

“QVQLVESGGGLVQAGGSLRLSCAASGSILYPYAMGWYRQAPGKEREFVAAITYGGGRTYYADSVKGRFTISRDNEKNTVYLHMNSLKPEDTAVYYCAARYTYSYPLFGSWGQGTQVTVSS”: the “polyreactivity (PSR sort gate)” value is recorded as “high polyreactivity”.

Take “QVQLVESGGGLVQAGGSLRLSCAASGSILYRNAMGWYRQAPGKERELVAGITRRGGSTYYADSVKGRFTISRDNAKNTVYLQMISLKPEDTAVYYCNVQRARRQRQYGYWGQGTQVTVSS”: the “polyreactivity (PSR sort gate)” value is recorded as “low polyreactivity”.

For the sequence “QVQLVESGGGLVQAGGSLRLSCAASGSILYTYAMGWYRQAPGKERELVAAISRSGGSTYYADSVKGRFTISRDTAKNTVYLQMNSLKPEDTAVYYCNAVRYLTRLGRYDYWGQGTQVTVSS”, the “polyreactivity (PSR sort gate)” value was “high polyreactivity”.

In the case of “QVQLVESGGGLVQAGGSLRLSCAASGSILYVNAMGWYRQAPGKERELVAVITSGGSTNNADSVKGRFTISRDNAKNTVYLQMNSLKPEDTAVYYCAADPYSVYGGDYWGQGTQVTVSS”, the “polyreactivity (PSR sort gate)” value is reported as “low polyreactivity”.

Turning to “QVQLVESGGGLVQAGGSLRLSCAASGSILYYYAMGWYRQAPGKERELVAAISWSGASTYYADSVKGRFTISRDNAKNTVYLQMNSLIPEDTAVYYCNADYTRDRYVANRYYYWGQGTQVTVSS”, the “polyreactivity (PSR sort gate)” value is given as “high polyreactivity”.

As for “QVQLVESGGGLVQAGGSLRLSCAASGSILYYYAMGWYRQAPGKERELVAAISWSGASTYYADSVKGRFTISRDNAKNTVYLQMNSLKPEDTAVYDCATSYTKQGFRYYYWGQGTQVTVSS”, the “polyreactivity (PSR sort gate)” value is on record as “high polyreactivity”.

Consider “QVQLVESGGGLVQAGGSLRLSCAASGSILYYYTMGWYRQAPGQDRELVAAITSSGGSTYYADSVKGRFTISRDNATKTVYLQMNSLKPEDTAVDYCNVDSGRSYRVARYDYWGQGTQVTVSS”, for which the “polyreactivity (PSR sort gate)” value was “low polyreactivity”.

On to “QVQLVESGGGLVQAGGSLRLSCAASGSIMGWSRQAPGTERELVAAISRGGSTYYADSVKGRFTISRDNAKNTVYLQMNSLKPEDTAVYYCAAKTGGSRSRFEYWGQGTQVTVSS”, for which the “polyreactivity (PSR sort gate)” value was “high polyreactivity”.

Take “QVQLVESGGGLVQAGGSLRLSCAASGSISATYAKGWYRQAPGKERELVAAISRNGGSTYYADSVKGRFTISRDNAKNTVYLQMNSLKPEDTAVYYCATSSSKSMYWGQGTQVTVSS”: the “polyreactivity (PSR sort gate)” value is on record as “high polyreactivity”.

Take “QVQLVESGGGLVQAGGSLRLSCAASGSISGLYAKGWYRQAPGKERELVAAITFRDGTTSYADSVKGRFTISRDNAKNTVYLQMNSLKPEDTAVYYCAAVDRDSNSSVPTLVHWGQGTQVTVSS”: the “polyreactivity (PSR sort gate)” value was “low polyreactivity”.

For “QVQLVESGGGLVQAGGSLRLSCAASGSISGYYAMGWYRQAPGKERELVASIRYTGARTYYADSVKGRFTISRDNAKNTVYLQMNSLKPEDTAVYYCAADFKRDRVWGGDYWGQGTQVTVSS”, the “polyreactivity (PSR sort gate)” value is “low polyreactivity”.
